Experiments:
[1] = test system: SAS-5 N-terminal domain (aa 1–202); assay: Ni-NTA pull-down of 35S-labelled SAS-4 fragments by SAS-5; assay type: binding, C. elegans; details: 25 mM HEPES, 100 mM NaCl, pH 7.4, 4°C, 30 min; SAS-5-6xHis bait on Ni-NTA
Description: SAS-4 constructs were cloned into a pET21a vector for in vitro transcription/translation. Proteins were expressed using the T7 TNT Quick Coupled Transcription/Translation System (Promega, Fitchburg, WI) with ^35S-Met labelling.
SAS-5 fragments were cloned into a pRSET-A vector with a C-terminal 6xHis tag. Proteins were expressed in E. coli Rosetta2(DE3) cells and purified on Ni-NTA agarose (Qiagen) using standard protocols. For pull-down experiments, proteins were dialysed into 25 mM HEPES, 100 mM NaCl, 20 mM imidazole, 1 mM DTT, 10% sucrose, 0.02% Tween-20, pH 7.4.
SAS-5 fragments were pre-incubated with 20 μl Ni-NTA beads for 45 min at 4°C. 10 μl of the SAS-4 IVTT product was added to the beads with 190 μl buffer and incubated at 4°C for 30 min. The beads were washed with 3 × 200 μl buffer and resuspended in 100 μl SDS-PAGE sample buffer. Samples were run on 10% SDS-PAGE gels and either stained with Coomassie or dried and exposed to a phosphor screen overnight. Phosphor screens were analysed on a Personal Molecular Imager System (Bio-Rad, Hercules, CA).

human STIL = details: ref Tang et al., 2011; cited from earlier work
From the text: Of particular interest in this regard is the putative centriolar CPAP–STIL complex, as mutations in both components result in MCPH ([Leal et al., 2003]; [Bond et al., 2005]; [Gul et al., 2006]; [Darvish et al., 2010]). CPAP and STIL are strictly required for centriole assembly: STIL at a very early stage ([Stevens et al., 2010b]; [Tang et al., 2011]; [Kitagawa et al., 2011a]; [Arquint et al., 2012]; [Vulprecht et al., 2012]) and CPAP slightly later ([Kirkham et al., 2003]; [Leidel and Gonczy, 2003]; [Basto et al., 2006]; [Kleylein-Sohn et al., 2007]; [Dobbelaere et al., 2008]; [Vulprecht et al ...

[2] = test system: centrioles in human cells; details: ref Kitagawa et al., 2011a; cited from earlier work
From the text: The structures we report here rev ...

Row | Molecule | interaction with SAS-5 in pull-down [1] | yeast-two-hybrid interaction with STIL (human STIL) | centriole duplication [2] | centriole overgrowth on overexpression [2] | localisation of CPAP to the centriole [2]
1 | full-length SAS-4: in vitro translated full-length C. elegans SAS-4, 35S-labelled (protein, ^35S-Met labelling) MASDENIGADGEQKPSRPFLRKGQGTARFRMPRNNKTSAGAPPTSELSSASSPSINVPRFSLSNALPNSARTVDSGISNEDETRPPTTASLPMDQPSLSSSPENRLNPAPSVAEEHGHSGQHAEEEEDNDTDEVSAMPSFVPDEPSTLVNSDHELSDDALKYKNAAAEFKAFERRMDSMRSASTITTSLATPSSCAPSNSSEPPTRSTPIMNDLGVGPNNHNWPSSMQELSGISLETPQARPLGSNRINQLVRSEAQTGISLLQHHERPTVTAPLRRNDMMNSSRQNPQNGNVQDENRPEHVYDQPIHVPGSSLDRQKLEIEIRRHRNLNIQLRDTIAHLDYAEESVHTTKRQLEEKISEVNNFKKELIEEFKKCKKGVEEEFEKKFEKIKEDYDELYEKLKRDQRDLERDQKILKKGTGERNKEFTETIATLRDKLRASETKNAQYRQDIRVRDEKLKKKDEEIEKLQKDGNRLKSTLQTLEKRVKQLRTEKERDDKEKEMFAKVAMNRKTSNPVPPVLNQSVPISITSNGPSRHPSSSSLTTFRKPSTSNRERGVSWADEPNEQSLEAVPQEFLMMPVKEMPGKFGKCTIYRDSLGETSKVTDTIANGLLFEYSNGDLRWVNRQNAVNIYISAVDKTVRIDLPTYNISIIHTFQRQVEVLRPGNNITLISIKRREVRTDLIYQNGMYKTEIFNRDGRYVTKDFSNQEVSRKYNPGTHTYRDNQCRYVLVTDYNDFELVEPEFRLRWYQGDPTGLNNQYILKIIGRPECSEKTLRLEVNLSTCEGTLETAEMIGDKRRKTTLFQWKK | interacted specifically with the N-terminal domain (aa 1–202) of SAS-5 | – | – | – | –
2 | E1235V: human CPAP with MCPH mutation E1235V (cited studies) (protein, UniProt Q9HC77 1-1338, looked up, variant E1235V) Centrosomal P4.1-associated …: MFLMPTSSELNSGQNFLTQWMTNPSRAGVILNRGFPILEADKEKRAAVDISTSFPIKGTHFSDSFSFINEEDSLLEEQKLESNNPYKPQSDKSETHTAFPCIKKGPQVAACHSAPGHQEENKNDFIPDLASEFKEGAYKDPLFKKLEQLKEVQQKKQEQLKRQQLEQLQRLMEEQEKLLTMVSGQCTLPGLSLLPDDQSQKHRSPGNTTTGERATCCFPSYVYPDPTQEETYPSNILSHEQSNFCRTAHGDFVLTSKRASPNLFSEAQYQEAPVEKNNLKEENRNHPTGESILCWEKVTEQIQEANDKNLQKHDDSSEVANIEERPIKAAIGERKQTFEDYLEEQIQLEEQELKQKQLKEAEGPLPIKAKPKQPFLKRGEGLARFTNAKSKFQKGKESKLVTNQSTSEDQPLFKMDRQQLQRKTALKNKELCADNPILKKDSKARTKSGSVTLSQKPKMLKCSNRKSLSPSGLKIQTGKKCDGQFRDQIKFENKVTSNNKENVTECPKPCDTGCTGWNKTQGKDRLPLSTGPASRLAAKSPIRETMKESESSLDVSLQKKLETWEREKEKENLELDEFLFLEQAADEISFSSNSSFVLKILERDQQICKGHRMSSTPVKAVPQKTNPADPISHCNRSEDLDHTAREKESECEVAPKQLHSLSSADELREQPCKIRKAVQKSTSENQTEWNARDDEGVPNSDSSTDSEEQLDVTIKPSTEDRERGISSREDSPQVCDDKGPFKDTRTQEDKRRDVDLDLSDKDYSSDESIMESIKHKVSEPSRSSSLSLSKMDFDDERTWTDLEENLCNHDVVLGNESTYGTPQTCYPNNEIGILDKTIKRKIAPVKRGEDLSKSRRSRSPPTSELMMKFFPSLKPKPKSDSHLGNELKLNISQDQPPGDNARSQVLREKIIELETEIEKFKAENASLAKLRIERESALEKLRKEIADFEQQKAKELARIEEFKKEEMRKLQKERKVFEKYTTAARTFPDKKEREEIQTLKQQIADLREDLKRKETKWSSTHSRLRSQIQMLVRENTDLREEIKVMERFRLDAWKRAEAIESSLEVEKKDKLANTSVRFQNSQISSGTQVEKYKKNYLPMQGNPPRRSKSAPPRDLGNLDKGQAASPREPLEPLNFPDPEYKEEEEDQDIQGEISHPDGKVEKVYKNGCRVILFPNGTRKEVSADGKTITVTFFNGDVKQVMPDQRVIYYYAAAQTTHTTYPEGLEVLHFSSGQIVKHYPDGRKEITFPDQTVKNLFPDGQEESIFPDGTIVRVQRDGNKLIEFNNGQRELHTAQFKRREYPDGTVKTVYANGHQETKYRSGRIRVKDKEGNVLMDTEL | – | appeared to weaken this yeast-two-hybrid interaction | centriole duplication was compromised by both mutations | able to promote centriole overgrowth to a greater extent than the WT protein | did not effect the localisation of CPAP to the centriole

Reference: publication PMC3776556, “Crystal structures of the CPAP/STIL complex reveal its role in centriole assembly and human microcephaly” (eLife, 2013)
